Read-outs that look alike come from different tables or passages of the source.
Tests used:
[1] = target: T1, human Siglec15 on human-siglec15-2D3-1E1 cells (human, UniProt Q6ZMC9 20-328); test: cell based binding FACS on human-siglec15-2D3-1E1 cells
T1 construct: whole, on cells; Transfected HEK-293 cells; also called cell surface human Siglec15
T1 sequence (looked up): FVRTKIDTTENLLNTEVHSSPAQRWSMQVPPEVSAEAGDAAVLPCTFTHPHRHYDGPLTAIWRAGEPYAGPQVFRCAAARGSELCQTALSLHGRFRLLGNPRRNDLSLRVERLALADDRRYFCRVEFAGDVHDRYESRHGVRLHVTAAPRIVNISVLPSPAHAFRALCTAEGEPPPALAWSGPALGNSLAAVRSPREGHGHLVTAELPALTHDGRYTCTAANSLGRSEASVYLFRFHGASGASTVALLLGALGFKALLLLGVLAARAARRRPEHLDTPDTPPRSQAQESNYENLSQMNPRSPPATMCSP
Description: The binding activities of the anti-Siglec15 antibodies to cell surface Siglec15 were tested by flow cytometry (FACS), using in-house prepared human-siglec15-2D3-1E1 cells expressing human Siglec15 (amino acid residues Met1-Pro328 of uniprot #Q6ZMC9) on cell membranes. The human-siglec15-2D3-1E1 cells were prepared by transfecting HEK-293 cells (ATCC #CRL-1573) with pCMV-T-P plasmids inserted with human Siglec15 coding sequence between EcoRI and XbaI sites, following the instruction of lipofectamine 3000 transfection reagent (Thermo Fisher). The human-siglec15-2D3-1E1 cells were harvested from cell culture flasks, washed twice and re-suspended in phosphate buffered saline (PBS) containing 2% v/v Fetal Bovine Serum (FACS buffer). 2×10⁵ cells per well in 96 well-plates were incubated in 100 μL serially diluted anti-Siglec15 antibodies or controls (starting at 66.67 nM, 5-fold serial dilution) in FACS buffer for 40 minutes on ice. […] Following a 40-minute incubation at 4° C. in dark, cells were washed three times and re-suspended in FACS buffer. Fluorescence was measured using a Becton Dickinson FACS Canto II-HTS equipment. Data was analyzed using Graphpad Prism software and EC₅₀ values were reported.

[2] = target: T2, cynomolgus monkey Siglec15-his protein (cynomolgus monkey); test: indirect ELISA on coated cynomolgus Siglec15-his
T2 construct: In house made; also called Cynomolgus Siglec15-his; cynomolgus Siglec15
T2 chain: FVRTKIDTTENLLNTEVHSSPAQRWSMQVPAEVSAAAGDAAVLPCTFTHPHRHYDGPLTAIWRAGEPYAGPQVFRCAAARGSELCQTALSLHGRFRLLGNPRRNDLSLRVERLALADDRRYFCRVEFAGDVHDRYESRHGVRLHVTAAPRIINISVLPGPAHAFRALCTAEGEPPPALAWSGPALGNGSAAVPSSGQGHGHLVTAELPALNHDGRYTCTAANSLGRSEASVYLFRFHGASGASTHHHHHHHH
Description: (§1) The anti-Siglec15 antibodies' cross-reactions to cynomolgus or mouse Siglec15 proteins were measured. Briefly, 96-well micro plates were coated with 100 μl of 2 μg/ml cynomolgus Siglec15-his protein (in house made with SEQ ID NO: 21), or 2 μg/ml mouse Siglec15-his protein (in house made with SEQ ID NO: 22) in carbonate/bicarbonate buffer (pH 9.6) for 2 hours at 37° C. ELISA plates were washed once with wash buffer (PBS+0.05% v/v Tween-20, PBST) and then blocked with 200 μl/well blocking buffer (5% w/v non-fatty milk in PBST) overnight at 4° C. Plates were washed 4 times and incubated with 100 μl serially diluted anti-Siglec15 antibodies of the disclosure or controls (starting at 66.7 nM, 5-fold serial dilution in PBST with 2.5% w/v non-fatty milk) for 40 minutes at 37° C. […] The reaction was stopped 4 minutes later at room temperature with 50 μl 1M H₂SO₄, and the absorbance of each well was read on a microplate reader using dual wavelength mode with 450 nm for TMB and 630 nm as the reference wavelength, then the OD (450-630) values were plotted against antibody concentration. Data was analyzed using Graphpad Prism software and EC₅₀ values were reported.

[3] = target: T2, cynomolgus monkey Siglec15-his protein; test: indirect ELISA on coated cynomolgus Siglec15-his
Description: as §1

[4] = target: T3, recombinant human Siglec15-his protein (human, UniProt Q6ZMC9 20-263); test: capture ELISA, captured antibody, biotin-labeled human Siglec15-his in solution
T3 construct: In house made; Biotin-labeled in the capture ELISA
T3 sequence: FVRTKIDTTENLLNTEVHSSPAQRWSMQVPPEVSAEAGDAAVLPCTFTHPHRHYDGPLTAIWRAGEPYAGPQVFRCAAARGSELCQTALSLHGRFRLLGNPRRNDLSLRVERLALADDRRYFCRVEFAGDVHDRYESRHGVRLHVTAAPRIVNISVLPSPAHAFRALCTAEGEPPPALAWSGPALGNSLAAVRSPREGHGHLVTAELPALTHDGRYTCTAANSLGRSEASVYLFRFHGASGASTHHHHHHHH
Description: Briefly, 96-well plates were coated with 100 μl of 2 μg/ml AffiniPure Goat Anti-Human IgG F(ab′)₂ fragment specific (Jackson Immuno Research, Cat #109-005-097) in PBS for 2 hours at 37° C. Plates were washed once with wash buffer (PBS+0.05% v/v Tween-20, PBST) and then blocked with 200 μl blocking buffer (5% w/v non-fatty milk in PBST) overnight at 4° C. Plates were washed 4 times and respectively incubated with 100 μl serially diluted anti-Siglec15 antibodies of the disclosure, the benchmark and hIgG (human immunoglobulin (pH4) for intravenous injection, Hualan Biological Engineering Inc.), 5-fold dilution in 2.5% w/v non-fatty milk in PBST starting at 66.7 nM, for 40 minutes at 37° C., and then washed 4 times again. […] The reaction was stopped in 4 minutes at room temperature with 50 μl/well 1M H₂SO₄, and the absorbance of each well was read on a microplate reader using dual wavelength mode with 450 nm for TMB and 630 nm as the reference wavelength, then the OD (450-630) values were plotted against antibody concentration. Data was analyzed using Graphpad Prism software and EC₅₀ values were reported.

EC50 [1]: 15.5 nM | EC50 [2]: 0.307 nM | EC50 [3]: 0.461 nM | EC50 [4]: 2.11 nM
B1: anti-Siglec15 benchmark (ch5G12) (antibody, human IgG1, kappa, V domains shown)
VH: QVQLQQPGAELVKPGASVKMSCKASGYTFTSYWITWVIQRPGQGLEWIGDIYCGSDTMHYNEKFKNKATLTVDTSSSTAYMQLSSLTSEDSAVYYCARWWDYGSSYDYFDYWGQGTTLTVSS
VL: DIKMTQSPSSMYASLGERVTITCKASQDINSYLSWFQQKPGKSPKTLIYRANRLVDGVPSRFSGSGSGQDYSLTISSLEYEDMGIYYCLQYDEFPYTFGGGTKLEIKR
notes: ch5G12 (US 20190202912A1); also called BM; Siglec15-ch5G9
